Test results as given in publication PMC3946051 (Molecular microbiology, 2014).
Each block holds one molecule with its values, some of them ahead of it.

Columns and labels:
[1] = target: CrtJ (R. capsulatus) (UniProt P26167); test: SEC
[2] = target: CrtJ (R. capsulatus) (UniProt P26167); test: MST
[3] = target: the molecule itself; test: SEC

stoichiometry N [1]: 1
EC50 [2]: 3.3 µM
Molecule: AerR:B12 (natural protein)

B1: CrtJ (natural protein, R. capsulatus, UniProt P26167 1-469, looked up)
chain: MTSDGSFLMRREALQRVSPDLLADIVTSACDIALVVSPGRVVESVMVNPQFGSAERFAAWQGARLSQLFSPESAQKLENRLADGPEPGRSLQLELTHAADAFTLPVRYTITRSGEDGTLLLIGRDMQPLAEVQQQLVKAQLALERDYEAQREIETRYRVLLEAHPAPLLIVSMSTGRIADLNLAAAAMIGATRAELIDAPVGQELDGRRRGEFLENLAKIAGSDPLGAVELTIRRSRRKVTVTATLFRAAGDRLLLCRLGEAEARRTRVDDTVELSERLFLKGIDAMVFLDADGTIRAANDAFLYLTDAGSAALVQGRSFADFLSRGAVDLNVLLDNVKRIGHLRHYVTRLNTDFSGQVTVELSATLFHDRATPTIALVIRDSNLADATRIMPGMASNEGLRNVMQMVGYATLRDIVSETTEIIEKMCIETALELTGNNRVAAAELLSLSRQSLYVKLRKFGLLSKDAE
stoichiometry N [3]: 2
